Experimental data published in patent publication EP1173480B1 (Neurochem (International) Limited, dated 2008).
Non-standard residues stand in square brackets, D forms with d. No end group written: not given here.

Each binder was assayed against Aβ(1-40), naturally occurring all-[L] isomer (UniProt P05067 672-711) (assay: cell-based or functional assay).
Chain of Aβ(1-40), naturally occurring all-[L] isomer (P05067 672-711 limits assumed): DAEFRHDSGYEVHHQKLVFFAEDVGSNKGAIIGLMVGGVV
In the case of [dK][dI][dV][dF][dF][dA] [all-[D] Lys-Ile-Val-Phe-Phe-Ala], the “order of potency as inhibitor of Aβ(1-40) fibril formation, thioflavin T fluorescence, peptide tested at 20µM (1 = strongest)” value is reported as 1 rank and the “order of potency as inhibitor of Aβ(1-40) fibril formation, thioflavin T fluorescence, peptide tested at 80µM (1 = strongest)” value is reported as 5 rank. For KKLVFFA [all-[L] Lys-Lys-Leu-Val-Phe-Phe-Ala], the “order of potency as inhibitor of Aβ(1-40) fibril formation, thioflavin T fluorescence, peptide tested at 20µM (1 = strongest)” value was 10 rank and the “order of potency as inhibitor of Aβ(1-40) fibril formation, thioflavin T fluorescence, peptide tested at 80µM (1 = strongest)” value was 7 rank. AFFVLK (not fully specified) [all-[L] Ala-Phe-Phe-Val-Leu-Lys] was tested, and the “order of potency as inhibitor of Aβ(1-40) fibril formation, thioflavin T fluorescence, peptide tested at 20µM (1 = strongest)” value was 11 rank and the “order of potency as inhibitor of Aβ(1-40) fibril formation, thioflavin T fluorescence, peptide tested at 80µM (1 = strongest)” value was 11 rank. With [dA][dF][dF][dV][dL][dK] [all-[D] Ala-Phe-Phe-Val-Leu-Lys (retro-isomer)] the “order of potency as inhibitor of Aβ(1-40) fibril formation, thioflavin T fluorescence, peptide tested at 20µM (1 = strongest)” value was 5 rank and the “order of potency as inhibitor of Aβ(1-40) fibril formation, thioflavin T fluorescence, peptide tested at 80µM (1 = strongest)” value was 1 rank. For [dK][dK][dL][dV][dF][dF][dA] [all-[D] Lys-Lys-Leu-Val-Phe-Phe-Ala], the “order of potency as inhibitor of Aβ(1-40) fibril formation, thioflavin T fluorescence, peptide tested at 20µM (1 = strongest)” value was 2 rank and the “order of potency as inhibitor of Aβ(1-40) fibril formation, thioflavin T fluorescence, peptide tested at 80µM (1 = strongest)” value was 1 rank. With [dK][dL][dV][dF][dF][dA] [all-[D] Lys-Leu-Val-Phe-Phe-Ala] the “order of potency as inhibitor of Aβ(1-40) fibril formation, thioflavin T fluorescence, peptide tested at 20µM (1 = strongest)” value was 3 rank and the “order of potency as inhibitor of Aβ(1-40) fibril formation, thioflavin T fluorescence, peptide tested at 80µM (1 = strongest)” value was 1 rank. In the case of [dK][dF][dV][dF][dF][dA] [all-[D] Lys-Phe-Val-Phe-Phe-Ala], the “order of potency as inhibitor of Aβ(1-40) fibril formation, thioflavin T fluorescence, peptide tested at 20µM (1 = strongest)” value is reported as 4 rank and the “order of potency as inhibitor of Aβ(1-40) fibril formation, thioflavin T fluorescence, peptide tested at 80µM (1 = strongest)” value is reported as 1 rank. With [dK][dA][dV][dF][dF][dA] [all-[D] Lys-Ala-Val-Phe-Phe-Ala] the “order of potency as inhibitor of Aβ(1-40) fibril formation, thioflavin T fluorescence, peptide tested at 20µM (1 = strongest)” value was 7 rank and the “order of potency as inhibitor of Aβ(1-40) fibril formation, thioflavin T fluorescence, peptide tested at 80µM (1 = strongest)” value was 6 rank. With KLVFFA [all-[L] Lys-Leu-Val-Phe-Phe-Ala] the “order of potency as inhibitor of Aβ(1-40) fibril formation, thioflavin T fluorescence, peptide tested at 20µM (1 = strongest)” value was 8 rank and the “order of potency as inhibitor of Aβ(1-40) fibril formation, thioflavin T fluorescence, peptide tested at 80µM (1 = strongest)” value was 8 rank. In the case of [dK][dL][dV][dF] [all-[D] Lys-Leu-Val-Phe], the “order of potency as inhibitor of Aβ(1-40) fibril formation, thioflavin T fluorescence, peptide tested at 20µM (1 = strongest)” value is reported as 6 rank and the “order of potency as inhibitor of Aβ(1-40) fibril formation, thioflavin T fluorescence, peptide tested at 80µM (1 = strongest)” value is reported as 9 rank. For [dK][dL][dV][dF][dF] [all-[D] Lys-Leu-Val-Phe-Phe], the “order of potency as inhibitor of Aβ(1-40) fibril formation, thioflavin T fluorescence, peptide tested at 20µM (1 = strongest)” value was 9 rank and the “order of potency as inhibitor of Aβ(1-40) fibril formation, thioflavin T fluorescence, peptide tested at 80µM (1 = strongest)” value was 10 rank.
